2 substances from publication PMC4980022 can be followed below.

In assay [1] the target is PorK lipoprotein (Porphyromonas gingivalis W50 (endogenous in W50ABK*WbaP)). Nature of the assay: negative-stain electron microscopy and electron tomography; purified PorK/N complex (fraction 6 of the CsCl gradient) stained with uranyl acetate.
The target is the same in assay [2]. As to the kind of experiment: high sensitivity amino acid analysis of the bands; purified PorK/N complex separated on SDS-PAGE, transferred to PVDF, PorK and PorN bands excised.
Assay [3] has the same target. As to the kind of experiment: densitometry of Coomassie stained gels; purified PorK/N complex on SDS-PAGE; PorK band against the combined PorN bands.
In assay [4] the target is PorN (Porphyromonas gingivalis W50 (endogenous in W50ABK*WbaP)). As to the kind of experiment: negative-stain electron microscopy and electron tomography; purified PorK/N complex (fraction 6 of the CsCl gradient) stained with uranyl acetate.

Broadly, the stoichiometry N is a count of units in the complex or per binding partner.

Several values for one entry are separate records, joined by “and”; a condition that tells them apart may be missing. Equal values may be shown once.

With PorK lipoprotein (natural protein), the stoichiometry N in assay [1] fell in the range of 32 to 36 subunits.

Take PorN (natural protein): the stoichiometry N (PorN per PorK) in assay [2] was 1.2; in assay [3], 1 and 1.2. The substance also yielded a stoichiometry N in assay [4] of 32 to 36 subunits.
